Measured values published in patent publication US20230212306A1 (Daiichi Sankyo, published 2023).

T1: human TLR7-Flag-His×6 (human TLR7 variant 2), expressed in Ba/F3 cells together with human Unc93B1-HA×2 (human, UniProt Q9NYK1 27-1049)
T1 construct: Cells were permeabilised with 0.1% saponin before staining; also called hTLR7-Flag-His×6; not shown: Flag-His×6 tag added to the C-terminus
T1 sequence: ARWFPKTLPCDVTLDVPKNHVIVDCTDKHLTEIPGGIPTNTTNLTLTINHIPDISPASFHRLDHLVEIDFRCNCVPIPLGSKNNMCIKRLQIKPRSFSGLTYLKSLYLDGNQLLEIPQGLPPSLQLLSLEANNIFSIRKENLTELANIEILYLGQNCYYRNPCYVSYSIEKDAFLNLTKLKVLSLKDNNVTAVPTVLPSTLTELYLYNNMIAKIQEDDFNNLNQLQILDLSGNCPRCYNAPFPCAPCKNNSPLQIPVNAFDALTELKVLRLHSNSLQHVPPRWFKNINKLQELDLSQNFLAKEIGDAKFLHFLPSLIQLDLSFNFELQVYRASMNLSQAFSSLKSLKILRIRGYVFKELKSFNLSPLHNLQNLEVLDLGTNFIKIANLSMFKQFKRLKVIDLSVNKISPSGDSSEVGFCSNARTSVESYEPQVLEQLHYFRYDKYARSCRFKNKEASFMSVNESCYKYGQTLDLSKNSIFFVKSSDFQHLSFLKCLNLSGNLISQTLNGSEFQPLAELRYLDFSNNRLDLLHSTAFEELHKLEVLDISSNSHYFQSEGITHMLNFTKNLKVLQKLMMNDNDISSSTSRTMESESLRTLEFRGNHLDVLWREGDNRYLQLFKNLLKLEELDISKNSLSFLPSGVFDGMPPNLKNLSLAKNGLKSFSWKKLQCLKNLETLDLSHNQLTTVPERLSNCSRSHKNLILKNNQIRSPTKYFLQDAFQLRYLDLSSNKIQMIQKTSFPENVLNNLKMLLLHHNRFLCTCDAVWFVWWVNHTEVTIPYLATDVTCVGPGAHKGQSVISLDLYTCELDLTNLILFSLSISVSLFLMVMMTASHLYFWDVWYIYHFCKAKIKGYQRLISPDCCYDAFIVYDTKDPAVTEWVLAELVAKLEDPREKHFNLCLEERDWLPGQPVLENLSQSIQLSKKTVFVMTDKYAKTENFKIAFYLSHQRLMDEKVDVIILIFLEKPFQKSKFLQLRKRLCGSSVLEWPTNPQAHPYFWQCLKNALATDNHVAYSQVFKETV

T2: rat TLR7-Flag-His×6, expressed in Ba/F3 cells (rat, UniProt P58681 27-1050 (mouse entry))
T2 construct: cells permeabilised with 0.1% saponin; not shown: Flag-His×6 tag added to the C-terminus
T2 chain: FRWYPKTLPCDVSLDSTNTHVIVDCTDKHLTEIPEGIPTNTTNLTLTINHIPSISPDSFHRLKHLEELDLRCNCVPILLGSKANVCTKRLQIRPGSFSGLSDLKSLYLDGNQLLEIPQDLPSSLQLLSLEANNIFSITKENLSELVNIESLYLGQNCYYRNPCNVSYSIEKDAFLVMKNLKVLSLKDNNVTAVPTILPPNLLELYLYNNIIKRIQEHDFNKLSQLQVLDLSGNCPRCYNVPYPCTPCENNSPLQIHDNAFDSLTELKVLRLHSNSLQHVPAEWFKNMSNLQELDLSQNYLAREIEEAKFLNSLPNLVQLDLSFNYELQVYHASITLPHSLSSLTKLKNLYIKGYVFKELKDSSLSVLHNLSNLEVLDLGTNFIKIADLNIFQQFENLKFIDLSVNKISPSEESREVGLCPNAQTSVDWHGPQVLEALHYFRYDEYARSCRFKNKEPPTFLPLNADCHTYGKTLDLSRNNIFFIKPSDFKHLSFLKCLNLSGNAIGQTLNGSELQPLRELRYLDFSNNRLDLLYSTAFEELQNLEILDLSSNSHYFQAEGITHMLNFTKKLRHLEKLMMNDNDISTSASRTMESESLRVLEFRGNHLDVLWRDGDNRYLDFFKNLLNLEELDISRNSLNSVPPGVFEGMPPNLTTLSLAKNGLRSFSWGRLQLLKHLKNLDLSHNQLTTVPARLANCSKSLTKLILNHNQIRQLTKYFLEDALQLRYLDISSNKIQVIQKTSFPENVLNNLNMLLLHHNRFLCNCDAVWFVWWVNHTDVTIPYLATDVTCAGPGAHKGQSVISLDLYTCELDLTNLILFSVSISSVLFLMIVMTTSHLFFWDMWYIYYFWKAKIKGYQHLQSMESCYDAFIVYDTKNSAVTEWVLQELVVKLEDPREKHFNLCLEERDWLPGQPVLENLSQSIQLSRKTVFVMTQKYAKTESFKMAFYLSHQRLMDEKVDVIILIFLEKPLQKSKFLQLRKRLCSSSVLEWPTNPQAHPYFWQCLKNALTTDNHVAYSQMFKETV

T3: human TLR7 (variant 2)-Flag, expressed in HEK293 cells (human, UniProt Q9NYK1 27-1049)
T3 construct: Transient expression from pcDNA3.1 in Lenti-X HEK293T cells; cells fixed and permeabilised before staining; not shown: Flag tag
T3 sequence: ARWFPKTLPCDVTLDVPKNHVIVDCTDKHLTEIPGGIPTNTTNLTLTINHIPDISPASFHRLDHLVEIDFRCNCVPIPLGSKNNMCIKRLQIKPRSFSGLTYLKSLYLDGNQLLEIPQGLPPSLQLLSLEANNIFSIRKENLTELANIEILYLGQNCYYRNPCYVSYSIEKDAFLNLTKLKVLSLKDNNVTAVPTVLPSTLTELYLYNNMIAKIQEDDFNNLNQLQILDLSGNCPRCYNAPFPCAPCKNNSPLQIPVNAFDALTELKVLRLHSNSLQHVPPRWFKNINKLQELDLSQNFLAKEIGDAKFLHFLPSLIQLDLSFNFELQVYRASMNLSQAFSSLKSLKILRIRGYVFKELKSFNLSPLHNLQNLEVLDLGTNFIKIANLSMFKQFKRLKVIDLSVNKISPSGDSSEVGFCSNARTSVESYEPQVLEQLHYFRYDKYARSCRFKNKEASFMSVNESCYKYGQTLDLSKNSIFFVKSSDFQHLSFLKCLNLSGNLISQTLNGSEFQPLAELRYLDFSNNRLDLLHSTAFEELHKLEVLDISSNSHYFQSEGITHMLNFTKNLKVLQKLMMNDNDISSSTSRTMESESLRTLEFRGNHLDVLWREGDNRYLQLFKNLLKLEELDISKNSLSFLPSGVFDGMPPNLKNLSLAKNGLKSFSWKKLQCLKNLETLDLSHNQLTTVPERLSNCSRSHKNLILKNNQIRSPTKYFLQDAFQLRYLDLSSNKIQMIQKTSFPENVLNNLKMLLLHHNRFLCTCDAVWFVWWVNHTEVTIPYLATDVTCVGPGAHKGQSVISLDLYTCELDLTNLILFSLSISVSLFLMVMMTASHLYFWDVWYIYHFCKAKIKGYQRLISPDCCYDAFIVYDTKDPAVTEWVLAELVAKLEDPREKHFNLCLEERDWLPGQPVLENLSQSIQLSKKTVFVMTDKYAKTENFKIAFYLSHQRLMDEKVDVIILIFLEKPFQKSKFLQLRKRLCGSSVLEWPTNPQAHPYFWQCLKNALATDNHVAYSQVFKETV


Tests used:
[1] = target: T1, human TLR7-Flag-His×6 (human TLR7 …); assay: flow cytometry (MFI) on saponin-permeabilised Ba/F3 cells expressing human TLR7-Flag-His×6/human Unc93B1-HA×2
Excerpt: (§1) The Ba/F3 cell line expressing human TLR7-Flag-His×6/human Unc93B1-HA×2 established above in 1)-1-1, the Ba/F3 cell line expressing mouse TLR7-Flag-His×6 established above in 2)-1-1, the Ba/F3 cell line expressing rat TLR7-Flag-His×6×2 established above in 2)-1-2, and the Ba/F3 cell line expressing monkey TLR7-Flag-His×6 established above in 2)-1-3 were subjected to membrane permeation with 0.1% Saponin and stained using AT01 antibody, NB7 antibody, and FAN2 antibody, and a secondary antibody, Goat anti-mouse IgG (H+L)-PE (eBioscience). The binding selectivity of each antibody was evaluated by comparing the average fluorescence intensity (MFI) based on flow cytometry analysis.

[2] = target: T2, rat TLR7-Flag-His×6, expressed in Ba/F3 …; assay: flow cytometry (MFI) on saponin-permeabilised Ba/F3 cells expressing rat TLR7-Flag-His×6
Excerpt: as §1

[3] = target: T3, human TLR7 (variant 2)-Flag, expressed …; assay: flow cytometry on fixed and permeabilised HEK293 cells expressing human TLR7 (variant 2)-Flag
Excerpt: The HEK293 cells expressing human TLR7 (variant 1)-Flag prepared in 8)-1, the HEK293 cells expressing human TLR7 (variant 2)-Flag prepared in 8)-2, the HEK293 cells expressing monkey TLR7-Flag prepared in 8)-3, the HEK293 cells expressing mouse TLR7-Flag prepared in 8)-4, and the HEK293 cells expressing rat TLR7-Flag prepared in 8)-5 were immobilized/subjected to membrane permeation with a Fixation and Permeabilization Solution (Becton, Dickinson and Company) and thereafter stained using huAT01_H3L2_IgG1LALA, which is one of the humanized anti-human TLR7 antibodies, and ALEXA FLUOR® 647 AffiniPure Goat anti-human IgG+IgM (H+L) (Jackson ImmunoResearch Inc.), which is the secondary antibody.
The binding of the humanized anti-human TLR7 antibody to human TLR7 was detected based on flow cytometry (Miltenyi Biotec K.K.), and the data was analyzed using software (Flowjo) which analyzes the data of flow cytometry.

Binder | binding result [1] | binding result [2] | binding result [3]
AT01 antibody (antibody, IgG1, V domains shown, also called mouse anti-human TLR7 antibody (AT01)) VH: QVQLQQPGAELVKPGASVNLSCKASGYTFTNNWLHWVKQRPGRGLEWIGDIYPSNGRTNYNEQFKTKATLTVDKSSSTAYMQLSSLTSEDSAVYFCARERGYFDYWGQGTALTVSS VL: DIQMTQSPSSLSTSLGGKVTITCKASQDINKYIAWYQHKPGKGPRLLIHYTSTLQPGIPSRFSGSGSGRDYSFSISNLEPEDIATYYCLQYDYLLTFGAGTKLELK | binds | no binding | 
NB7 antibody (antibody, IgG1, V domains shown, also called mouse anti-human TLR7 antibody (NB7)) VH: DVQLQESGPGLVKPSQSLSLTCTVTGYSITSDYAWNWIRQFPGNKLEWMGHISYRGNTNYNPSLKSRISITRDTSKNQFFLQLNSVTTEDTATYYCASWNYYGYVDYAMDYWGQGTSVTVSS VL: DIQMTQTPSSLSASLGDRVTISCRASQDISNYLNWYQQKPDGTVKLLIYYTSRLHSGVPSRFSGSGSGTDYSLTINNLEQEDIATYFCQQGDTFPTFGGGTKLEIK | binds | no binding | 
FAN2 antibody (antibody, IgG1, V domains shown, also called mouse anti-human TLR7 antibody (FAN2)) VH: QVQLKESGPGLVAPSQSLSITCTVSGFSLTGYGVNWVRQPPGKGLEWLGMIWGDGSTDYNSALKSRLSIRKDNSKSQVFLKMNSLQTDDTARYYCARDKGYDGYYYAMDYWGQGTSVTVSS VL: DIQMTQSPASLSASVGETVTITCRASENIYSYLAWYQQKQGKSPQLLVYDAKTLAEGVPSRFSGSGSGTQFSLKINSLQPEDFGSYYCQHHYGIPYTFGGGTKLEIK | binds | no binding | 
huAT01_H3L2_IgG1LALA antibody (antibody, V domains shown, Humanized AT01; heavy huAT01_H3_IgG1LALA, light huAT01_L2) VH: QVQLVQSGAEVKKPGASVKVSCKASGYTFTNNWLHWVRQAPGQGLEWMGDIYPSNGRTNYAQKFQGRVTLTVDKSTSTAYMELSSLRSEDTAVYFCARERGYFDYWGQGTLVTVSS VL: DIQMTQSPSSLSASVGDRVTITCKASQDINKYIAWYQQKPGKAPKLLIHYTSTLQPGIPSRFSGSGSGRDYTLTISSLQPEDFATYYCLQYDYLLTFGQGTKVEIKR |  |  | binds
